{"source": "paper PMC8553002", "about": "(Journal of Mass Spectrometry and Advances in the Clinical …, 2020)", "origin": "cited, not measured here", "conditions": "insulin degraded by the liver, to a minor extent, kidneys", "data": [{"substance": "Insulin: hormone released with C-peptide from proinsulin in equimolar amounts", "values": [{"measurement": "half-life", "result": "3 to 5", "unit": "min"}]}]}
